# Results published in patent US11230711B2, “Inhibition of LET7I as a means to enhance the protective effect of progesterone against stroke” (UNIVERSITY OF NORTH TEXAS HEALTH SCIENCE CENTER, priority 2017, dated 2022).
# B1: BDNF: purified recombinant brain-derived neurotrophic factor, 50 ng/ml, positive control (protein, UniProt P23560 19-247, looked up)
# Neurotrophic factor BDNF …: APMKEANIRGQGGLAYPGVRTHGTLESVNGPKAGSRGLTSLADTFEHVIEELLDEDQKVRPNEENNKDADLYTSRVMLSSQVPLEPPLLFLLEEYKNYLDAANMSMRVRRHSDPARRGELSVCDSISEWVTAADKKTAVDMSGGTVTVLEKVPVSKGQLKQYFYETKCNPMGYTKEGCRGIDKRHWNSQCRTTQSYVRALTMDSKKRIGWRFIRIDTSCVCTLTIKRGR
# Tested on: primary cortical neurons
# Test: Synaptic marker expression (Synaptophysin, Gap-43) in primary cortical neurons, immunostaining and qRT-PCR
# Assay type: cell-based, mouse
# Settings: P4-ACM from 10 nM P4-treated astrocytes, 18 hrs, BDNF 50 ng/ml, FIGS. 1A-1B
# Excerpt: FIG. 1A represents immune-staining of Gap43 (green) and Synaptophysin (red). FIG. 1B represents qRT-PCR analysis of Gap43 (left) and Synaptophysin (right) mRNA levels. Data are presented as a percentage of control (non-treated group) (*: p≤0.05, **:p≤0.01).
# The use of animals for the purpose of generating primary cultures was approved by the Institutional Animal Care and Use Committee at the University of North Texas Health Science Center. All mice will be handled according to the Guide for the Care and Use of Laboratory Animals. Primary cultures of cortex and hippocampal neurons will be prepared from neonatal murine pups (C57BL/6 mice, Jackson Laboratory) as described by Sarkar et al. with modifications. Briefly, cortical tissues isolated from newborn mice (postnatal days 2-4, mixed gender) will be then dissociated with trypsin and DNase I for 10 min at 37° C., and wash twice with Neurobasal-A medium containing B-27 and further dissociated by gentle titration using a graded series of fine polished Pasteur pipettes. After centrifugation at 200×g for 3 min at 4° C., dissociated cells will be resuspended in Neurobasal-AB-27 medium, passed through a cell strainer with 70 μm mesh, and plated at 1.0×10^5 cells/cm2 on culture dishes precoated with poly-D-lysine. The culture dishes were kept at 37° C. in humidified 95% air and 5% CO2. For primary neuron-enriched culture, the initial culture medium was replaced after 5 h; subsequently, half of the medium was changed every 3 days. At day in vitro (DIV) 3, 1-β-arabinofuranosylcytosine (AraC) was added to a final concentration of 5 μM to prevent glial proliferation. Treatments of the primary neuronal cultures started at DIV 14. For glial-enriched cultures, confluent mixed glial cultures were placed on the shaker for 48 hrs to dislodge microglia, resulting in cultures enriched with astrocyte population.
# Although the underlying mechanism remains unclear, one potential mediator for P4-induced synaptogenesis is BDNF [33].
# [1] = listed as purified recombinant BDNF
molecule,measurement,setting,value
B1,expression of Gap-43,,increased expression
same,expression of Synaptophysin,,increased expression
same,expression of Gap-43,[1],increased the expression
same,expression of Synaptophysin,[1],increased the expression
